Measurements reported in paper PMC10778704, “Comparative Analysis of Cyclization Techniques in Stapled Peptides: Structural Insights into Protein–Protein Interactions in a SARS-CoV-2 Spike RBD/hACE2 Model System” (International Journal of Molecular Sciences, 2023).
Bridge positions count the residues as written; N and C are the ends. Square brackets hold non-standard residues; d marks the D form. Peptide text beside a SMILES is read from it. S5 = C=CCCC[C@](C)(N)C(=O)O

Columns and labels:
circular dichroism = conditions: 10 mM Na phosphate; pH 7.4; 25 °C; 100 uM
in vitro = conditions: rat, plasma
[1] = 37 °C, comparison in words

Molecule	helicity (circular dichroism) [%]	half-life (in vitro) [h]	Degradation / stability in rat plasma over 24 h [1]
C=CCCC[C@](C)(NC(=O)[C@H](CC(C)C)NC(=O)[C@H](CC(=O)O)NC(=O)[C@H](CCC(=O)O)NC(=O)[C@](C)(CCCC=C)NC(=O)[C@H](CCC(=O)O)NC(=O)[C@H](Cc1c[nH]cn1)NC(C)=O)C(=O)N[C@@H](Cc1ccc(O)cc1)C(=O)N[C@@H](CCC(N)=O)C(N)=O (Ac-HE[S5]EDL[S5]YQ-NH2)	11		
CC(=O)N[C@@H](CC(=O)O)C(=O)N[C@@H](CCCCN)C(=O)N[C@H]1CSCc2ccc(cc2)CSC[C@@H](C(=O)N[C@@H](CCC(=O)O)C(=O)N[C@@H](CC(=O)O)C(N)=O)NC(=O)[C@H](CCC(=O)O)NC(=O)[C@H](Cc2c[nH]cn2)NC(=O)[C@H](CC(N)=O)NC1=O	5		
CC(=O)N[C@@H](CC(=O)O)C(=O)N[C@@H](CCCCN)C(=O)N[C@H]1CCCCNC(=O)C[C@@H](C(=O)N[C@@H](CCC(=O)O)C(=O)N[C@@H](CC(=O)O)C(N)=O)NC(=O)[C@H](CCC(=O)O)NC(=O)[C@H](Cc2c[nH]cn2)NC(=O)[C@H](CC(N)=O)NC1=O [compound 3] (Ac-DKKNHEDED-NH2; lactam 3-7)	49.9	2.9	
CC(=O)N1CCC[C@H]1C(=O)N[C@@H](CC(=O)O)C(=O)N[C@@H](CCCCN)C(=O)N[C@H]1CCCCNC(=O)C[C@@H](C(=O)N[C@@H](CCC(=O)O)C(=O)N[C@@H](CC(=O)O)C(N)=O)NC(=O)[C@H](CCC(=O)O)NC(=O)[C@H](Cc2c[nH]cn2)NC(=O)[C@H](CC(N)=O)NC1=O (Ac-PDKKNHEDED-NH2; lactam 4-8)	89.7		
Ac-HEAEDLFYQ-NH2 [peptide 2]			levels of degradation similar to those of 8-amino acid-long AngII
CC(=O)N[C@@H](CC(=O)O)C(=O)N[C@@H](CCCCN)C(=O)N[C@H]1CCCCNC(=O)C[C@@H](C(=O)N[C@@H](CCC(=O)O)C(=O)N[C@@H](CC(=O)O)C(=O)N[C@H]2CCCCNC(=O)C[C@@H](C(N)=O)NC(=O)[C@H](CCC(N)=O)NC(=O)[C@H](Cc3ccc(O)cc3)NC(=O)[C@H](Cc3ccccc3)NC2=O)NC(=O)[C@H](CCC(=O)O)NC(=O)[C@H](Cc2c[nH]cn2)NC(=O)[C@H](CC(N)=O)NC1=O (Ac-DKKNHEDEDKFYQD-NH2; lactam 3-7, 10-14)	25.2		
CC(=O)N[C@@H](Cc1c[nH]cn1)C(=O)N[C@@H](CCC(=O)O)C(=O)N[C@H]1CCCCn2cc(nn2)C[C@H](C(=O)N[C@@H](Cc2ccc(O)cc2)C(=O)N[C@@H](CCC(N)=O)C(N)=O)NC(=O)[C@H](CC(C)C)NC(=O)[C@H](CC(=O)O)NC(=O)[C@H](CCC(=O)O)NC1=O	18.1		
CC(=O)N1CCC[C@H]1C(=O)N[C@@H](Cc1c[nH]cn1)C(=O)N[C@@H](CCC(=O)O)C(=O)N[C@H]1CCCCNC(=O)C[C@@H](C(=O)N[C@@H](Cc2ccc(O)cc2)C(=O)N[C@@H](CCC(N)=O)C(N)=O)NC(=O)[C@H](CC(C)C)NC(=O)[C@H](CC(=O)O)NC(=O)[C@H](CCC(=O)O)NC1=O (Ac-PHEKEDLDYQ-NH2; lactam 4-8)	56.7		
Ac-DKFNHEAED-NH2 [peptide 1]			levels of degradation similar to those of 8-amino acid-long AngII
CC(=O)N[C@@H](CC(=O)O)C(=O)N[C@@H](CCCCN)C(=O)N[C@@]1(C)CCC/C=C\CCC[C@@](C)(C(=O)N[C@@H](CCC(=O)O)C(=O)N[C@@H](CC(=O)O)C(N)=O)NC(=O)[C@H](CCC(=O)O)NC(=O)[C@H](Cc2c[nH]cn2)NC(=O)[C@H](CC(N)=O)NC1=O [peptide 10] (Ac-DK[S5]NHE[S5]ED-NH2; staple (Z) 3-7)	68.9	4	
CC(=O)N[C@@H](CC(=O)O)C(=O)N[C@@H](CCCCN)C(=O)N[C@@]1(C)CCC/C=C/CCC[C@@](C)(C(=O)N[C@@H](CCC(=O)O)C(=O)N[C@@H](CC(=O)O)C(N)=O)NC(=O)[C@H](CCC(=O)O)NC(=O)[C@H](Cc2c[nH]cn2)NC(=O)[C@H](CC(N)=O)NC1=O (Ac-DK[S5]NHE[S5]ED-NH2; staple (E) 3-7)	4.7		
CC(=O)N[C@@H](CC(=O)O)C(=O)N[C@@H](CCCCN)C(=O)N[C@H]1CC(=O)NCCCC[C@@H](C(=O)N[C@@H](CCC(=O)O)C(=O)N[C@@H](CC(=O)O)C(N)=O)NC(=O)[C@H](CCC(=O)O)NC(=O)[C@H](Cc2c[nH]cn2)NC(=O)[C@H](CC(N)=O)NC1=O (Ac-DKDNHEKED-NH2; lactam 3-7)	37.2		
CC(=O)N[C@@H](Cc1c[nH]cn1)C(=O)N[C@@H](CCC(=O)O)C(=O)N[C@H]1CCCCNC(=O)CC[C@@H](C(=O)N[C@@H](Cc2ccc(O)cc2)C(=O)N[C@@H](CCC(N)=O)C(N)=O)NC(=O)[C@H](CC(C)C)NC(=O)[C@H](CC(=O)O)NC(=O)[C@H](CCC(=O)O)NC1=O (Ac-HEKEDLEYQ-NH2; lactam 3-7)	4.6		
CC(=O)N[C@@H](CC(=O)O)C(=O)N[C@@H](CCCCN)C(=O)N[C@H]1Cn2cc(nn2)CCc2cn(nn2)C[C@@H](C(=O)N[C@@H](CCC(=O)O)C(=O)N[C@@H](CC(=O)O)C(N)=O)NC(=O)[C@H](CCC(=O)O)NC(=O)[C@H](Cc2c[nH]cn2)NC(=O)[C@H](CC(N)=O)NC1=O	8.2		
CC(=O)N[C@@H](CC(=O)O)C(=O)N[C@@H](CCCCN)C(=O)N[C@@H]1Cc2cn(nn2)CCCC[C@@H](C(=O)N[C@@H](CCC(=O)O)C(=O)N[C@@H](CC(=O)O)C(N)=O)NC(=O)[C@H](CCC(=O)O)NC(=O)[C@H](Cc2c[nH]cn2)NC(=O)[C@H](CC(N)=O)NC1=O	5.2		
CC(=O)N[C@@H](Cc1c[nH]cn1)C(=O)N[C@@H](CCC(=O)O)C(=O)N[C@H]1CC(=O)NCCCC[C@@H](C(=O)N[C@@H](Cc2ccc(O)cc2)C(=O)N[C@@H](CCC(N)=O)C(N)=O)NC(=O)[C@H](CC(C)C)NC(=O)[C@H](CC(=O)O)NC(=O)[C@H](CCC(=O)O)NC1=O (Ac-HEDEDLKYQ-NH2; lactam 3-7)	35.1		
CC(=O)N[C@@H](Cc1c[nH]cn1)C(=O)N[C@@H](CCC(=O)O)C(=O)N[C@@H]1Cc2cn(nn2)CCCC[C@@H](C(=O)N[C@@H](Cc2ccc(O)cc2)C(=O)N[C@@H](CCC(N)=O)C(N)=O)NC(=O)[C@H](CC(C)C)NC(=O)[C@H](CC(=O)O)NC(=O)[C@H](CCC(=O)O)NC1=O	25.7		
CC(=O)N[C@@H](Cc1c[nH]cn1)C(=O)N[C@@H](CCC(=O)O)C(=O)N[C@@]1(C)CCC/C=C/CCC[C@@](C)(C(=O)N[C@@H](Cc2ccc(O)cc2)C(=O)N[C@@H](CCC(N)=O)C(N)=O)NC(=O)[C@H](CC(C)C)NC(=O)[C@H](CC(=O)O)NC(=O)[C@H](CCC(=O)O)NC1=O [peptide 11, Ac-NH-His-Glu-[S5-Glu-Asp-Leu-S5]-Tyr-Gln-CO-NH2] (Ac-HE[S5]EDL[S5]YQ-NH2; staple (E) 3-7)	53.5	6.8	significantly more stable
CC(=O)N[C@@H](Cc1c[nH]cn1)C(=O)N[C@@H](CCC(=O)O)C(=O)N[C@H]1Cn2cc(nn2)CCc2cn(nn2)C[C@@H](C(=O)N[C@@H](Cc2ccc(O)cc2)C(=O)N[C@@H](CCC(N)=O)C(N)=O)NC(=O)[C@H](CC(C)C)NC(=O)[C@H](CC(=O)O)NC(=O)[C@H](CCC(=O)O)NC1=O	50.7		
